Experimental data taken from patent US7048919B2, “Osteoclast secreted chemokine and uses thereof” (The UAB Research Foundation, priority 2000, dated 2006).

How the values were obtained:
[1] = test system: mesenchymal stem cells (osteoblast precursors); experiment: Transwell migration assay of calcein-loaded mesenchymal stem cells; type: cell-based
Protocol: Mesenchymal stem cells were loaded in the presence of 5 μM calcein in αMEM, and the cells washed twice with media. Cells were plated at 10,000 cells/well in the upper well of Neuroprobe transwell plates. The concentration dependence of mim-1 in migration assays was determined in the transwell migration assay with the indicated concentrations of mim-1 in the bottom chamber. Cells were cultured for 4 hours at 37° C. in a humidified chamber with 5% CO2. Remaining cells were scraped from the upper well and removed. Migration was measured on a fluorescence plate-reader which measures fluorescence in the bottom well and migration was quantified by comparisons with a standard curve generated by serial dilutions of calcein loaded cells plated directly in the bottom chamber. Data is from a single experiment performed in quadruplicate.

mesenchymal stem cells = experiment: Cell proliferation of osteoblast precursor cells; type: cell-based; details: concentrations up to 2 μg/ml
[2] = test system: p42/44 MAP-kinase in MG63 cells; experiment: p42/p44 MAP kinase activation, phospho-specific Western blot; type: cell-based, human
Protocol: Cells were treated with 2 μg/ml of purified mim-1 for the indicated times, washed, lysed and 25 […] protein resolved on 10% SDS PAGE. Protein was transferred to PVDF membrane and the membranes probed with phospho-specific p42/p44 MAP kinase antibody (New England Biolabs).
Mim-1 also stimulated the increased p42/44 MAP-kinase phosphorylation in a time-dependent manner in MG63 cells. The time dependence of mim-1 activation of MAP kinase by Western analysis with the phospho specific MAP kinase antibody was tested. This antibody detects only the phosphorylated (activated) form of MAP kinase (FIG. 16). Mim-1 stimulates the time dependent activation of MAP kinase with maximal effects at 3 minutes (compare this with 2 μg/ml in FIG. 15). The concentration dependence for activation of MAP kinase was maximal at 1–2 μg/ml (not shown) similar to the effects of mim-1 on tyrosine phosphorylation (FIG. 15).

[3] = test system: cbfal binding to osteocalcin promoter in MG63 cells; experiment: cbfal binding to osteocalcin promoter site, electrophoretic mobility shift assay; type: cell-based, human
Protocol: FIG. 17A show cells treated with 2 μg/ml of purified mim-1 for 0, 10, 30, 60, 120, and 240 min washed, lysed and nuclear extracts prepared. A 27 bp oligonucleotide from the osteocalcin proximal cbfal binding site was 5′ end labeled with γ^32P-ATP by T4 kinase. Equivalent amounts of nuclear extracts were incubated with the probe for 30 min and samples resolved on a 5% gel, fixed, dried and binding visualized by autoradiography.
Cells were treated with 2 μg/ml of purified mim-1 for 0, 10, 30, 60, 120, and 240 min, washed, lysed and nuclear extracts prepared. A 27 bp oligonucleotide from the osteocalcin proximal cbfal binding site was 5′ end labeled with ^32P-ATP by T4 kinase. Equivalent amounts of nuclear extracts were incubated with the probe for 30 min and samples resolved on a 5% gel, fixed, dried and binding visualized by autoradiography for specific binding.
Similarly, cells were treated with 0, 0.02, 0.3 and 2.0 μg/ml of mim-1 for 2 hrs and mobility shifts done as discussed.

[4] = test system: Vitamin D receptor binding to the VDRE in MG63 cells; experiment: Vitamin D receptor binding to the VDRE, electrophoretic mobility shift assay; type: cell-based, human; details: 2 μg/ml mim-1, absence of added 1,25(OH)2 D3
Protocol: Competitive displacement (CD) of vitamin D receptor interaction by 100× of cold probe. […] CD is competitive displacement as in FIG. 18A and NS is incubaton with 100× NonSpecific probe (vitellogenin estrogen response element), both were included as controls with 2 hr mim-1 extracts.
Double stranded oligonucleotide probe, corresponding to the VDRE from the human osteocalcin promoter, is ^32P-labeled with T4 kinase and incubated with nuclear extracts from MG-63 cells treated with 2 μg/ml of mim-1 for 0, 10, 30, 60 and 120 minutes, respectively. Vitamin D receptor interaction was displaced competitively by 100× of cold probe. The cells were then treated with mim-1 for 2 to 3 hrs and VDR/VDRE supershifted with a 1:5 or 1:10 dilution of VDR polyclonal antibody 4707. Competitive displacement with cold probe and incubaton with 100× vitellogenin estrogen response element as a non-specific probe were included as […] controls with 2 hr mim-1 extracts. VDR/VDRE from MG63 cells was compared to recombinant VDR heterodimer (rVDRhd).

MC3T3-E1 cells = experiment: In vitro matrix mineralization (VonKossa staining, total calcium); type: cell-based; details: 16 days
Protocol: MC3T3-E1 cells (2.5×10^4 cells/well) were cultured in DMEM/F12 plus 1% FBS in the presence of 10 mM glycerophosphate, 50 μg/ml ascorbic acid and either, 0, 3 or 15 nM (FIGS. 19A–C, respectively) of purified mim-1 for 16 days. […] 200× magnification, data is representative of n=2 experiments. VonKossa staining was confirmed by measuring total calcium in each well. Calcium was acid hydrolyzed, neutralized and measured on a Kodak Ektachem DTSC II and the results illustrated in the bar graph at the right. Calcium measurements are representative single determinations from 2 separate experiments.
MC3T3-E1 cells, seeded at 2.5×10^4 cells/well, were cultured in DMEM/F12 plus 1% FBS in the presence of 10 mM glycerophosphate, 50 μg/ml ascorbic acid and either 0, 3 or 15 nM of purified mim-1 for 16 days. […] VonKossa staining was confirmed by measuring total calcium in each well. The calcium was acid hydrolyzed, neutralized and measured on a Kodak Ektachem DTSC II.

human bone marrow cells = experiment: FACS analysis of human bone marrow cell cultures (CD14+); type: cell-based; details: 2 μg/ml mim-1, 3 days
Protocol: Human bone marrow cells were cultured in IMDM with GM-CSF (50 ng/ml), IL3 (10 ng/ml) and 20 ng/ml SCF (controls) for 3 days −/+2 […] mim-1 and analyzed by FACS analysis. The remaining cells were cultured in colony formation assays an additional 14 days with the same growth factors minus or plus 2 μg/ml mim-1. Data is the average −/+ SEM of 3 separate experiments.
Human bone marrow cells were cultured in IMDM with GM-CSF (50 ng/ml), IL3 (10 ng/ml) and […] SCF (controls) for 3 days with or without 2 μg/ml mim-1. The cells were analyzed by FACS analysis. The remaining cells were cultured in colony formation assays an additional 14 days with the same growth factors with or without 2 μg/ml mim-1.

A549, lung cancer = experiment: Cancer cell growth inhibition, cell counts; type: cell-based, human; details: A549, three days, 0.5-4 μg/ml mim-1
Protocol: (§1) Cancer cells (A549, lung cancer; MDA231, Breast cancer; and AD10, ovarian cancer) were cultured for three days in the presence of the indicated concentrations of mim-1. Cells were counted in 10 random grids, and the data is plotted as Percent of Control (no added mim-1). Data are representative of 2 separate experiments.
(§2) Three cancer cell lines (A549, lung cancer; MDA231, breast cancer; and AD10, ovarian cancer) were cultured for three days in the presence of 0 (control), 0.5, 1, 2 and 4 μg/ml of mim-1. Cells were counted in 10 random grids, and the data is plotted as Percent of Control (no added mim-1).

AD10, ovarian cancer = experiment: Cancer cell growth inhibition, cell counts; type: cell-based, human; details: AD10, three days, 0.5-4 μg/ml mim-1
Protocol: as §1, §2

MDA231, breast cancer = experiment: Cancer cell growth inhibition, cell counts; type: cell-based, human; details: MDA231, three days, 0.5-4 μg/ml mim-1
Protocol: as §1, §2

mouse marrow macrophage = experiment: Osteoclast-like cell differentiation, mouse marrow macrophage differentiation model; type: cell-based; details: presence of M-CSF and soluble RANKL

B1: mim-1: 35 kD osteoclast secreted chemokine-like protein, SEQ ID NO: 8, homologous with Lect2 (protein, listed as Gallus gallus)
chain: MPALSLIALLSLVSTAFARQWEVHPPQQQGRHWAQICSGNPFNRIRGCDRYGCGNYGASRQGKGEKHKGVDVICTDGSIVYAPFWGQLSGPIRFFHNGNAIDDGVQISGSGYCVKLVCIHPIRYHGQIQKGQQLGRMLPMQKVFPGIVSHIHVENCDQSDPTHLLRPIPDISPPFPQQDAHWAVVCAGNPTNEIRGCKDYGCGYFGAPRRNGKGEKHKGVDVICADGATVYAPFSGELSGPVKFFHNGNAIDDGVGIRGSGFCVKLLCIHPIRYNGRISKGQVLGRMLPMQRVFPGIISHIHVENCDRSDPTSNLERGKGESEMEV
modifications: amino acid sequence of mim-1 protein
B1 was tested, and the “concentration of maximal effect on mesenchymal stem cell migration” value ([1]; 4 hours, purified mim-1 in bottom chamber) was “approximately 100 ng/ml”, the “concentration to stimulate migration lower than that to stimulate tyrosine phosphorylation” value ([1]; migration versus tyrosine phosphorylation) was “five- and ten-fold” and the “effect on cell proliferation” value (mesenchymal stem cells) was “no effect”. The “time of maximal activation of MAP kinase” value ([2]; 2 μg/ml mim-1) was 3 min, the “concentration of maximal activation of MAP kinase” value ([2]; not shown) was 1 to 2 µg/mL and the “cbfal binding above control levels” value ([3]; 20 ng/ml mim-1, 2 hrs) was about 2 fold. For the same molecule, the “concentration to stimulate cbfal binding lower than that to stimulate tyrosine phosphorylation” value ([3]; 20 ng/ml versus tyrosine phosphorylation) was 5–10 fold, the “time of maximal cbfal binding” value ([3]; 2 μg/ml mim-1) was 2 h and the “increase in binding of cbfal transcription factor to osteocalcin oligonucleotide probe” value ([3]; 2 μg/ml mim-1, MG63 cells) was “five-fold”. For the same molecule, the “decrease in cbfal binding from maximum” value ([3]; 2 μg/ml mim-1, by 4 hours) was about 30%, the “Vitamin D receptor binding to the VDRE” value [4] was “stimulated Vitamin D receptor binding to the VDRE in a time dependent manner” and the “concentration of maximal effect on mineralization” value (MC3T3-E1 cells) was 0.5 µg/mL. For the same molecule, the “proportion of CD14+ cells” value (human bone marrow cells) was “increase in the proportion of cells that are CD14^+”, the “inhibition of cell growth” value (A549, lung cancer) was “concentration dependent inhibition of cell growth” and the “inhibition of cell growth” value (AD10, ovarian cancer) was “concentration dependent inhibition of cell growth”. The “inhibition of cell growth” value (MDA231, breast cancer) was “concentration dependent inhibition of cell growth” and the osteoclast-like cell differentiation (mouse marrow macrophage) was “effectively blocks osteoclast-like cell differentiation”.
